Data as given in the supplement of paper PMC10567573.

B1: IKZF1 (parent)
chain: HIKLHSGEKPFKCHLCNYACRRRD

Variants of: B1
Test: protein stability index of a GFP-peptide fusion (GPS, HEK-293T) (PSI 1-6); higher = more stable
Details: c terminus: a fixed tail appended
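Further: lentivirally expressed fusions sorted by FACS into six bins by GFP to DsRed ratio, PSI derived from sequencing read proportions per bin multiplied by bin number.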

Protein stability index of substitutions, site by site:
H1: Y 1.95; N 2.73; E 2.21; R 2.13; T 1.17; D 1.59; C 1.83; Q 1.26; P 2.3; G 2; W 1.93; K 2.09; V 1.72; I 1.5; F 2.4; M 1.81; A 1.05; L 2.04
L4: P 2.19; M 1.58; Q 4.68; I 1.72; N 1.87; R 2.48; V 1.31; T 1.63; H 4.08; G 2.21; D 2.4; F 1.92; Y 2.52; E 3.72; C 2.33; A 1.99; S 2.84; K 4.07
E8: I 1.74; P 2.17; C 1.97; A 1.92; G 2.85; W 2.28; D 1.72; S 2.22; F 1.72; N 1.25; Y 2.06; L 1.79; Q 1.56; M 1.63; T 1.59; R 1.33; V 2.13; K 1.5; H 1.93
I2: F 2.27; T 2.02; S 1.76; G 2.29; V 1.47; L 2; D 2.5; N 2.14; Y 1.93; M 2.6; P 2.13; K 1.86; C 2.44; H 2.3; W 2.22; R 1.96; Q 2.32; E 1.78
K9: G 2.12; D 2.8; P 1.9; E 2.02; L 1.86; S 2.17; V 1.43; I 2.23; T 1.42; W 1.26; M 2.1; H 3.3; R 1.81; C 2.79; A 2.11; F 1.97; Q 1.88; N 1.79
K3: Y 1.69; M 1.51; T 1.9; S 1.91; I 1.61; P 3.67; L 1.99; G 2.38; A 1.58; C 2.56; N 2.11; F 2.38; H 2.44; W 2.73; Q 2.03; V 1.83; R 1.88; D 1.95; E 1.8
S6: D 1.97; G 2.02; H 1.96; W 2.93; Y 1.79; C 1.51; M 2.13; L 1.93; K 1.82; R 2.24; N 3.35; P 2.02; E 3.3; V 1.16; T 1.99; I 2.38; A 1.65; Q 1.88; F 2.19
G7: L 1.73; M 1.78; V 3.09; F 2.21; P 2.19; K 2.47; T 1.15; N 1.18; D 2.25; A 2.2; C 2.58; S 1.63; W 2; I 1.68; Y 2.25; E 2.62; R 2.08; H 1.97; Q 2.16
H5: L 1.7; G 2.45; V 1.78; M 2.06; F 1.97; Q 1.78; E 2.37; Y 2.45; T 1.48; I 2.57; W 1.8; R 1.55; A 3.14; C 2.77; N 2.13; K 2.27; D 2.12; P 1.94; S 1.18
